Reference: the supplement of paper PMC7877785
± gives the uncertainty stated by the source.

Assay: self-splicing fitness, log relative to wild type (ln ratio); higher = more splicing; Tetrahymena group I intron in knt gene, E. coli kanamycin selection, DiMSum; sequences stand for … in CUCUCU…GGAGGGAAAAGUUAUCAGGCAUGCACCUGGUAGCUAGUCUUUAAACCAAUAGAUUGCAUCGGUUUAAAAGGCAAGACCGUCAAAUUGCGGGAAAGGGGUCAACAGCCGUUCAGUACCAAGUCUCAGGGGAAACUUUGAGAUGGCCUUGCAAAGGGUAUGGUAAUAAGCUGACGGACAUGGUCCUAACCACGCAGCCAAGUCCUAAGUCAACAGAUCUUCUGUUGAUAUGGAUGCAGUUCACAGACUAAAUGUCGGUCGGGGAAGAUGUAUUCUUCUCAUAAGAUAUAGUCGGACCUCUCCUUAAUGGGAGCUAGCGGAUGAAGUGAUGCAACACUGGAGCCGCUGGGAACUAAUUUGUAUGCGAAAGUAUAUUGAUUAGUUUUGGAGUACUCGUGGUCG
In short: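 DiMSum derived fitness as the error-weighted combination of fold changes across replicates, kanamycin versus no kanamycin, normalised to wild type. E. coli BL21(DE3) held the library, which randomised all eight P1ex-region intron nucleotides within the knt kanamycin-resistance gene on pET-22b(+). Six replicate transformations grew overnight at 37°C or 30°C on LB agar with or without 25 μg/mL kanamycin, also containing 100 μg/mL carbenicillin, 50 μM IPTG and 0.2% rhamnose, and pooled colonies were amplicon-sequenced on an Illumina HiSeq 2500.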

| Sequence | self-splicing fitness (ln) (30 °C) | self-splicing fitness (ln) (37 °C) |
| --- | --- | --- |
| CGCAAGCAAUAUUACGUUUA | -2.8 ± 0.12 | -1.98 ± 0.095 |
| CGCCAGCAAUAUUACGAAGC | – | -1.71 ± 0.19 |
| CGCCAGCAAUAUUACGACGU | -1.71 ± 0.076 | -1.5 ± 0.094 |
| CGCCAGCAAUAUUACGCAGA | -3.57 ± 0.47 | -2.53 ± 0.24 |
| CGCCAGCAAUAUUACGCAUG | -0.241 ± 0.077 | -1.06 ± 0.1 |
| CGCCAGCAAUAUUACGCUCU | -1.6 ± 0.081 | -1.06 ± 0.097 |
| CGCCAGCAAUAUUACGGAAG | -1.44 ± 0.064 | -0.526 ± 0.077 |
| CGCCAGCAAUAUUACGGCGA | -3.29 ± 0.23 | -1.84 ± 0.18 |
| CGCCAGCAAUAUUACGGUGC | -3.5 ± 0.17 | -3.07 ± 0.3 |
| CGCCAGCAAUAUUACGGUUA | -0.708 ± 0.055 | 0.0109 ± 0.058 |
| CGCCAGCAAUAUUACGGUUC | -2.29 ± 0.11 | -1.54 ± 0.11 |
| CGCCAGCAAUAUUACGUAAU | -2.67 ± 0.12 | -1.71 ± 0.15 |
| CGCCAGCAAUAUUACGUAUU | -3.2 ± 0.093 | -2.71 ± 0.15 |
| CGCCAGCAAUAUUACGUCGC | -3.23 ± 0.16 | -2.11 ± 0.2 |
| CGCCAGCAAUAUUACGUGGU | -3.15 ± 0.18 | -3.22 ± 0.26 |
| CGCCAGCAAUAUUACGUGUC | -3.34 ± 0.15 | -2.36 ± 0.14 |
| CGCCAGCAAUAUUACGUUAC | -1.91 ± 0.22 | -3.49 ± 0.31 |
| CGCGAGCAAUAUUACGACUC | – | -1.14 ± 0.31 |
| CGCGAGCAAUAUUACGAGGA | -3.16 ± 0.22 | -2.16 ± 0.18 |
| CGCGAGCAAUAUUACGCAAG | -2.92 ± 0.27 | -2.91 ± 0.43 |
| CGCGAGCAAUAUUACGCGAA | -3.88 ± 0.43 | -2.65 ± 0.23 |
| CGCGAGCAAUAUUACGGAAG | -1.78 ± 0.17 | -2.32 ± 0.2 |
| CGCGAGCAAUAUUACGGAGA | -2.25 ± 0.23 | -2.3 ± 0.33 |
| CGCGAGCAAUAUUACGGCAA | -4.21 ± 0.46 | -1.97 ± 0.28 |
| CGCGAGCAAUAUUACGUAAG | -1.78 ± 0.096 | -1.73 ± 0.12 |

| Sequence | self-splicing fitness (ln) (30 °C) | self-splicing fitness (ln) (37 °C) |
| --- | --- | --- |
| CGCGAGCAAUAUUACGUAAU | -3.36 ± 0.27 | -3.23 ± 0.4 |
| CGCGAGCAAUAUUACGUACA | – | -2.71 ± 0.43 |
| CGCGAGCAAUAUUACGUACG | -2.6 ± 0.24 | -1.5 ± 0.27 |
| CGCGAGCAAUAUUACGUACU | -3.32 ± 0.28 | -2.3 ± 0.31 |
| CGCGAGCAAUAUUACGUAGG | -2.88 ± 0.14 | -0.445 ± 0.12 |
| CGCGAGCAAUAUUACGUCCG | -2.81 ± 0.37 | 1.32 ± 0.29 |
| CGCGAGCAAUAUUACGUUAG | -3.74 ± 0.21 | -1.33 ± 0.18 |
| CGCGAGCAAUAUUACGUUGU | -3.93 ± 0.28 | -2.4 ± 0.36 |
| CGCUAGCAAUAUUACGAAAU | -3.5 ± 0.22 | -2.01 ± 0.2 |
| CGCUAGCAAUAUUACGAACU | -0.352 ± 0.12 | -0.0958 ± 0.14 |
| CGCUAGCAAUAUUACGAAUG | -1.33 ± 0.17 | -0.192 ± 0.16 |
| CGCUAGCAAUAUUACGAGAA | – | -1.99 ± 0.29 |
| CGCUAGCAAUAUUACGAGAG | -3.41 ± 0.24 | -2.81 ± 0.38 |
| CGCUAGCAAUAUUACGAGUC | -1.8 ± 0.13 | -1.01 ± 0.15 |
| CGCUAGCAAUAUUACGAUUC | -3.29 ± 0.36 | -2.12 ± 0.21 |
| CGCUAGCAAUAUUACGCAAC | – | -1.61 ± 0.49 |
| CGCUAGCAAUAUUACGCAUU | -3.69 ± 0.28 | -2.04 ± 0.27 |
| CGCUAGCAAUAUUACGCGUA | -3.45 ± 0.37 | -1.45 ± 0.15 |
| CGCUAGCAAUAUUACGCGUG | -2.8 ± 0.13 | -1.77 ± 0.12 |
| CGCUAGCAAUAUUACGCUCU | -1.58 ± 0.1 | -0.837 ± 0.099 |
| CGCUAGCAAUAUUACGGCAC | -1.9 ± 0.18 | 0.16 ± 0.19 |
| CGCUAGCAAUAUUACGGCAG | -1.29 ± 0.082 | -0.703 ± 0.15 |
| CGCUAGCAAUAUUACGGCGC | -1.1 ± 0.29 | – |
| CGCUAGCAAUAUUACGGCUA | -1.91 ± 0.31 | – |
| CGCUAGCAAUAUUACGGUCU | -1.02 ± 0.1 | -0.659 ± 0.12 |
